Biological target: Human FcRn (hFcRn), soluble α-chain/β2m heterodimer, P55899;P61769
Experiment: BLI (in vitro BLI-based FcRn platform)
Conditions: chain shown with the change;, read off a plot

| Binder | other: Predicted Human t1/2, β (parent: est. 270) [days] | other: Predicted Human t1/2, β (parent: est. 690) [days] |
| --- | --- | --- |
| HCV1, fully human IgG1 mAb HCV (with CDB Vk CDRs): Vk CDR1-3 of HCV1 replaced by Vk CDRs of CDB1; residues not printed (protein) chain 1: EVQLLESGGGVVQPGRSLRLSCTASGFTFNNYGMHWVRQTPGKGLEWLAVIWFDENNKYYADSVRGRFTISRDNSKNTLFLQMNSLKTEDTAMYYCARDISLVRDAFIYFDFWGLGTLVTVSS chain 2: ELTLTQSPATLSLSPGERATLSCRASQSVSSSYLAWYQQKPGQAPRLLIYGASNRATGIPARFSGSGSGTDFTLTISSLEPEDFAVYYCQQYGSSTWTFGQGTRLEIK | 13.3 |  |
| HCV1, fully human IgG1 mAb HCV (with CDA VH CDRs): VH CDR1-3 of HCV1 replaced by VH CDRs of CDA1; residues not printed (protein) chain 1: EVQLLESGGGVVQPGRSLRLSCTASGFSFSNYGMHWVRQTPGKGLEWLAVIWYDGSNEYYADSVRGRFTISRDNSKNTLFLQMNSLKTEDTAMYYCARWGMVRGVIDVFDIWGLGTLVTVSS chain 2: ELTLTQSPATLSLSPGERATLSCRASQSVSSYLAWYQQKPGQAPRLLIYDASNRATGIPARFSGSGSGTDFTLTISSLEPEDFAVYYCQQRSNWITFGQGTRLEIK | 22.9 |  |
| CDA1 (actoxumab), fully human IgG1 mAb CDA (with HCV VH CDRs): VH CDR1-3 of CDA1 replaced by VH CDRs of HCV1; residues not printed (protein) chain 1: QVQLVESGGGVVQPGRSLRLSCAASGFTFNNYGMHWVRQAPGKGLEWVALIWFDENNKDYTDSVKGRFTISRDNSKNTLYLQMNSLRAEDTAVYYCARDISLVRDAFIYFDFWGQGTVVTVSS chain 2: DIQMTQSPSSVSASVGDRVTITCRASQGISSWLAWYQHKPGKAPKLLIYAASSLQSGVPSRFSGSGSGTDFTLTISSLQPEDFATYYCQQANSFPWTFGQGTKVEIK |  | 15 |
